Reference: PMC11286772, “Structural basis of antagonist selectivity in endothelin receptors” (Cell Discovery, 2024)
Where a chain is given by its changes, count along the chain named. In names and notes the source's numbering stands.

B1: ETA, wild type, as used in the size exclusion chromatography analysis with Fab301, P25101 E234A (protein)
chain: DNPERYSTNLSNHVDDFTTFRGTELSFLVTTHQPTNLVLPSNGSMHNYCPQQTKITSAFKYINTVISCTIFIVGMVGNATLLRIIYQNKCMRNGPNALIASLALGDLIYVVIDLPINVFKLLAGRWPFDHNDFGVFLCKLFPFLQKSSVGITVLNLCALSVDRYRAVASWSRVQGIGIPLVTAIEIVSIWILSFILAIPEAIGFVMVPFEYRGAQHKTCMLNATSKFMEFYQDVKDWWLFGFYFCMPLVCTAIFYTLMTCEMLNRRNGSLRIALSEHLKQRREVAKTVFCLVVIFALCWFPLHLSRILKKTVYNEMDKNRCELLSFLLLMDYIGINLATMNSCINPIALYFVSKKFKNCFQSCLCCCCYQSKSLMTSVPMNGTSIQWKNHDQNNHNTDRSSHKDSMN
B2: ETA, wild type, as used in the size exclusion chromatography analysis with Fab301, P25101 F229A (protein)
chain: B1 chain with F209A, A214E
B3: ETA, wild type, as used in the size exclusion chromatography analysis with Fab301, P25101 E230A (protein)
chain: B1 chain with E210A, A214E
B4: ETA, wild type, as used in the size exclusion chromatography analysis with Fab301, P25101 Y231A (protein)
chain: B1 chain with Y211A, A214E
B5: ETA, wild type, as used in the size exclusion chromatography analysis with Fab301, P25101 Q235A (protein)
chain: B1 chain with A214E, Q215A
B6: ETA, wild type, as used in the size exclusion chromatography analysis with Fab301, P25101 R232A (protein)
chain: B1 chain with R212A, A214E
B7: ETA, wild type, as used in the size exclusion chromatography analysis with Fab301, P25101 G233A (protein)
chain: B1 chain with G213A, A214E

target: Fab301, Fab fragment of the anti-ETA monoclonal antibody Getagozumab; assay: size exclusion chromatography; settings: chain shown with the change;; parent: est. 0 min; read off a plot
Sequence (chain, as listed by the source, chain 1 of 2): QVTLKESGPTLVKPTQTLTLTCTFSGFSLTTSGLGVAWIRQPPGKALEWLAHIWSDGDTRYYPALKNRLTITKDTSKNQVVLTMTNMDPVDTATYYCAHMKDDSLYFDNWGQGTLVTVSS
Sequence (chain, as listed by the source, chain 2 of 2): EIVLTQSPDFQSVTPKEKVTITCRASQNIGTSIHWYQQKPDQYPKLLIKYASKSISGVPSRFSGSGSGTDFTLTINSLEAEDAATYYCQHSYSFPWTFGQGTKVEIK

| other: Δt (SEC retention time of mutant–Fab301 complex minus WT–Fab301 complex) | Binder |
| --- | --- |
| 0.019 min | B1 |
| -0.004 min | B2 |
| 0.026 min | B3 |
| 0.039 min | B4 |
| 0.023 min | B5 |
| 0.054 min | B6 |
| 0.056 min | B7 |
